Series [1] has as its system reduced HMGB1 (all-thiol) (rat (sequence identical to human)). The experiment in a line: EMSA. As to conditions: EMSA: 50 mM NaCl, 25 mM Tris-HCl pH 7.5, 1 mM EDTA, 1 mM DTT, 100 ug/ml acetylated BSA, 3% glycerol, 30 min on ice. On the technique in general: A gel shift assay detects complexes by their altered migration in electrophoresis.
A further series deals with histone H1o (H1) (human). Put plainly: EMSA. As to conditions: no competitor DNA, EMSA: 50 mM NaCl, 25 mM Tris-HCl pH 7.5, 1 mM EDTA, 1 mM DTT, 100 ug/ml acetylated BSA, 3% glycerol, 30 min on ice.
Series [2] deals with oxidized HMGB1 (Cys23-Cys45 disulfide) (rat (sequence identical to human)). The experiment in a line: EMSA. As to conditions: EMSA: 50 mM NaCl, 25 mM Tris-HCl pH 7.5, 1 mM EDTA, 1 mM DTT, 100 ug/ml acetylated BSA, 3% glycerol, 30 min on ice.
The test system is the same in series [3]. Put plainly: ligase-mediated circularization. As to conditions: bending, EMSA: 50 mM NaCl, 25 mM Tris-HCl pH 7.5, 1 mM EDTA, 1 mM DTT, 100 ug/ml acetylated BSA, 3% glycerol, 30 min on ice, gels 0.5x TBE, 4 C.
Where [4] appears, read: covalently closed circle, gels 0.5x TBE ….

In general, Kd refers to a measure of binding affinity in units of concentration.

For the substance 66-bp DNA minicircle, the Kd is below 0.1 nM in series [1] (setting [4]); 5 nM with histone H1o (H1) (human) (setting [4]); 0.25 nM in series [2] (oxidized, covalently closed circle, gels 0.5x TBE …).

For the substance 123-bp DNA duplex, the binding signal (% of minicircles with reduced HMGB1) in series [3] was below 20.

For the substance hemicatenated DNA loops (hcDNA), the Kd in series [1] (gels 0.5x TBE, 4 C) is below 0.01 nM; in the series with histone H1o (H1) (human) (gels 0.5x TBE, 4 C), 6 nM; in series [2] (gels 0.5x TBE, 4 C), below 0.01 nM. In addition, in series [2] (oxidized, gels 0.5x TBE, 4 C), the binding signal (fold lower affinity than reduced (up to)) worked out at 10.

For the origin of these results see PMC3923860.
